Data as given in patent US20210246191A1 (BIONTECH, published 2021).
Residue numbers refer to the chain shown, from its start. Bridge positions count the residues as written; N and C are the ends. Ends that are not written are not given here.

Assays:
[1] = molecular target: FN-67B89 (recombinant human fibronectin EDB flanked by its surrounding type III domains, C-terminal hexahistidine tag) (human) (UniProt P02751); experiment: SPR, biotinylated FN-67B89 on streptavidin sensor, 50-4000 nM, 1:1 Langmuir fit
[2] = molecular target: FN-67B89 (recombinant human fibronectin EDB flanked by its surrounding type III domains, C-terminal hexahistidine tag) (human) (UniProt P02751); experiment: SPR, biotinylated FN-67B89 on streptavidin sensor, 1.25-10 nM, 1:1 Langmuir fit
[3] = molecular target: T1, bovine serum albumin (bovine, UniProt P02769 25-607); experiment: ELISA, 200 nM Trx-miniprotein on coated protein (1 µg/well), duplicates
T1 construct: Control protein coated in ELISA; also called BSA
T1 sequence (P02769 25-607 limits assumed): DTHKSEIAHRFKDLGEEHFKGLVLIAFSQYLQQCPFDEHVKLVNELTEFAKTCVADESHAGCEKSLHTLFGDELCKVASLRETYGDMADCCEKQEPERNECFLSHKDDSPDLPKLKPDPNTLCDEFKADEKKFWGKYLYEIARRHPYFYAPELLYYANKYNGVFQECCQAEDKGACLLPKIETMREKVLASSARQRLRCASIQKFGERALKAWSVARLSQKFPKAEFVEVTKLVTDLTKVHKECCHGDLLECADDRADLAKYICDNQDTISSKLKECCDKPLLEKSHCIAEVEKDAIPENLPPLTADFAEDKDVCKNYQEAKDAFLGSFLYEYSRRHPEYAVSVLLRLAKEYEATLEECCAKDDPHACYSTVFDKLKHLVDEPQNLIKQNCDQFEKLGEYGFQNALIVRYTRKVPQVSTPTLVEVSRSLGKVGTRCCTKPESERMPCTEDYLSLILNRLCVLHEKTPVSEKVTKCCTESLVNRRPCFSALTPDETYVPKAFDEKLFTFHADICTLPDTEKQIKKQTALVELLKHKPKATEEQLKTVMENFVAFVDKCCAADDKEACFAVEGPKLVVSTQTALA
Description: FIG. 5: Extended specificity analysis of Trx-cystine-knot miniprotein clones MCopt 1.0-2/-3 and MCopt 2.0-1/-2/3. […] ELISA was performed in duplicates, error bars represent standard deviation and Trx-MC-Myc-010 served as negative cystine-knot miniprotein control.
(§1) ELISA was used as technique to analyze protein-protein interactions. Cavities of 96-well microtiter plates (Nunc MaxiSorp™, Thermo Fisher Scientific) were coated with 1 μg FN-B, bovine serum albumin (BSA, Eurobio), milk powder, streptavidin (Sigma Aldrich), T7-His-TEV-B (LD BioPharma), FN-B(8-14) (R&D Systems), lysozyme, ovalbumin (GE Healthcare Life Science), aldolase (GE Healthcare Life Science) or 0.6 μg anti-c-myc-antibody (M4439, Sigma) overnight at 4° C. The wells were washed three times with PBS-T (1×PBS with 0.1% (w/v) Tween-20), blocked with 1× Casein buffer (Sigma Aldrich) diluted in PBS for 2 h at RT and washed again as described. […] After three times of washing with PBS-T, binding of the respective variant was detected with a horseradish peroxidase (HRP)-conjugated anti-S-tag antibody (ab18589 or ab19324, Abeam). Enzymatic reaction was measured with TMB as a chromogenic substrate and stopped with 0.2 M HCl after approximately 5 min. The measurement of absorbance at 450 nm was performed using an Infinite M200 PRO Microplate Reader (Tecan).

[4] = molecular target: FN-67B89 (recombinant human fibronectin EDB flanked by its surrounding type III domains, C-terminal hexahistidine tag) (human) (UniProt P02751); experiment: ELISA titration of Trx-miniprotein on coated protein (1 µg/well), HRP anti-S-tag antibody, duplicates [continued), panel MCopt 1.0-3]
[5] = molecular target: T2, FN-B (recombinant human fibronectin EDB as a single domain, C-terminal hexahistidine tag) (human, UniProt P02751 1266-1356, Biotinylated on primary amines only for the phage screening; coated unmodified in the ELISAs); experiment: as above
T2 construct: Made in E. coli (pET-21a); Residue numbers count on isoform 7 of P02751; Biotinylated on primary amines for the phage screening; also called Fibronectin Extra Domain B; single domain FN-B
T2 sequence (P02751 other isoform, or with tags, fused parts or gaps limits assumed): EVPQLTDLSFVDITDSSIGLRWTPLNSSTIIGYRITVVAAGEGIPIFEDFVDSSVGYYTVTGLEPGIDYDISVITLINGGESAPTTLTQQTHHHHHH
Description: (§2) FIG. 6: Saturation-binding curves of MCopt 1.0-2/-3 and MCopt 2.0-1/-2/-3 EDB binding. […] Binding of Trx-cystine-knot miniproteins was detected with an HRP-conjugated anti-s-tag-antibody. ELISAs were performed in duplicates (single values for FN-B(8-14)).
as §1

[6] = molecular target: T3, FN-B(8-14) (R&D Systems), EDB with C-terminal domains 8-13 and 1/2 of domain 14 (UniProt P02751 1265-1908); experiment: ELISA titration of Trx-miniprotein on coated protein (1 µg/well), HRP anti-S-tag antibody, single values [continued), panel MCopt 1.0-3]
T3 construct: domain: EDB with C-terminal domains 8-13 and 1/2 of domain 14; Bought
T3 sequence (P02751 1265-1908 limits assumed): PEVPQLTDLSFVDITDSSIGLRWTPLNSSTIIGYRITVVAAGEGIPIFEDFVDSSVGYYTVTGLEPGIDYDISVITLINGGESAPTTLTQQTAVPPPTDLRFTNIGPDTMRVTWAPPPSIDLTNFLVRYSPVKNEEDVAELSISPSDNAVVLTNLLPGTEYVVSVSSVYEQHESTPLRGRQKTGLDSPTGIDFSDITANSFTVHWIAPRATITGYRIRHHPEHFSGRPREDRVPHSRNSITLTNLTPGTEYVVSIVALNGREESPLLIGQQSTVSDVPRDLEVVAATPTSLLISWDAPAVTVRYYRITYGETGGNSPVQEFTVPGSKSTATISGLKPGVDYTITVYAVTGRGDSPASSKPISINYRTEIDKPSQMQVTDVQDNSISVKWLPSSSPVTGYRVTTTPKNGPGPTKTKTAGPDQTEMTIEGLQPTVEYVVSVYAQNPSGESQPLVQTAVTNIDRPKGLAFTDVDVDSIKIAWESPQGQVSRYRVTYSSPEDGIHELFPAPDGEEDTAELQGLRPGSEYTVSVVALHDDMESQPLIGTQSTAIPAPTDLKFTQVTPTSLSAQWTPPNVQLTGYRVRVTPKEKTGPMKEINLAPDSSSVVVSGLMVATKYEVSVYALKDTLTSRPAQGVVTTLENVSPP
Description: as §2, §1

[7] = molecular target: FN-67B89 (recombinant human fibronectin EDB flanked by its surrounding type III domains, C-terminal hexahistidine tag) (human) (UniProt P02751); experiment: SPR single cycle kinetics, biotinylated FN-67B89 on streptavidin chip, 1.25-10 nM, 1:1 Langmuir fit
[8] = molecular target: FN-67B89 (recombinant human fibronectin EDB flanked by its surrounding type III domains, C-terminal hexahistidine tag) (human) (UniProt P02751); experiment: SPR, biotinylated FN-67B89 on streptavidin sensor, 62.5-4000 nM, 1:1 Langmuir fit
[9] = molecular target: T2, FN-B (recombinant human fibronectin EDB …); experiment: ELISA, Trx fusion 50 to 1.563 nM on coated FN-B, HRP anti-S-tag antibody; relative binding from apparent binding constants against parental MC-FN-010, three assays
[10] = molecular target: T4, FN-6789 (recombinant human fibronectin type III domains 6-9 without EDB, C-terminal hexahistidine tag) (human, UniProt P02751-1 1085-1446, limits assumed); experiment: ELISA, 1.56 to 50 nM Trx-miniprotein on 1 µg coated protein per well, 50 ng HRP anti-S-tag antibody, duplicates
T4 construct: domain: domains 6-9 without EDB; Control protein
T4 sequence (P02751 other isoform, or with tags, fused parts or gaps limits assumed): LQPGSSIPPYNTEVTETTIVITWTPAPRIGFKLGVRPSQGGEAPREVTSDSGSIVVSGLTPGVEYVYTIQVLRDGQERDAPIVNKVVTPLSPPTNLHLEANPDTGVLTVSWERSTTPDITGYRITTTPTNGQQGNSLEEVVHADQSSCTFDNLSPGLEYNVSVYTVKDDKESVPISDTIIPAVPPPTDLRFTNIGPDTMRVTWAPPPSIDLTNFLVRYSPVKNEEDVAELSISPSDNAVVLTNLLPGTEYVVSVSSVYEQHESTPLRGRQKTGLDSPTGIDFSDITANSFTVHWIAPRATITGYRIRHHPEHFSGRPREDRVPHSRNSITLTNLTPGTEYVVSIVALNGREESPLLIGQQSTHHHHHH

B1: MC-FN-010 (tag-free cystine-knot miniprotein) (designed binder)
chain: PMCTQRKNRIRLCRRDSDCTGACICRGNGYCG
modifications: disulfide 13-25; disulfide (positions not given here); not fully specified (bridges)
In the case of B1, the Kd [1] is reported as 1580 nM, the koff [1] is reported as 0.0783 s⁻¹ and the kon [1] is reported as 49500 M⁻¹ s⁻¹.

B2: DOTA-(MC-FN-016)3 (unlabeled trimeric probe) (designed binder)
peptide: B1 chain with K7A
modifications: ends and bridges not checked; also: trimer, DOTA on trimer, site not given here
B2 showed a Kd [2] of 0.624 nM, a koff [2] of 0.00226 s⁻¹ and a kon [2] of 3.73e+06 M⁻¹ s⁻¹.

B3: Trx-MC-FN-010 (thioredoxin fusion of cystine-knot miniprotein MC-FN-010) (designed binder)
chain: B1 chain
modifications: not fully specified; cysteine pairing not given here; also: fused to E. coli thioredoxin with His6-tag, S-tag and thrombin site
notes: also called Trx-MCopt 1.0-3; MCopt 1.0-3; not shown: E. coli thioredoxin-A, fusion partner from vector pET-32-LibEx; H6-tag, s-tag and thrombin cleavage site of pET-32-LibEx
In the case of B3, the binding result [3] is reported as “no binding (tested: 200 nM)”, the EC50 (read off the curve) [4] is reported as 10 nM and the “EC50 (read off the curve)” value [5] is reported as roughly 4 nM. The “EC50 (read off the curve)” value [6] was roughly 10 nM.

B4: AF680-(MC-FN-010)3 (trimeric MC-FN-010 conjugated with Alexa Fluor 680) (designed binder)
peptide: B1 chain
modifications: ends and bridges not checked; also: trimer via oxime ligation, Alexa Fluor 680 label
In the case of B4, the Kd [7] is reported as 0.431 nM, the koff [7] is reported as 0.00347 s⁻¹ and the kon [7] is reported as 8.04e+06 M⁻¹ s⁻¹.

B5: MC-FN-016 (tag-free cystine-knot miniprotein) (designed binder)
chain: B1 chain with K7A
modifications: disulfide 13-25; disulfide (positions not given here); not fully specified (bridges)
Work on B5 yielded a Kd [8] of 1410 nM, a koff [8] of 0.187 s⁻¹ and a kon [8] of 133000 M⁻¹ s⁻¹.

B6: AF680-(MC-FN-016)3 (trimeric MC-FN-016 conjugated with Alexa Fluor 680) (designed binder)
peptide: B1 chain with K7A
modifications: ends and bridges not checked; also: trimer via oxime ligation, Alexa Fluor 680 label
B6 showed a Kd [7] of 0.902 nM, a koff [7] of 0.00231 s⁻¹ and a kon [7] of 2.56e+06 M⁻¹ s⁻¹.

B7: Trx-MC-FN-019 (designed binder, not shown: large carriers; small tags and cut ends)
chain: B1 chain with I10A
modifications: disulfide 13-25, 19-31, 3-23; also: N-terminal thioredoxin fusion carrier (Trx, H6-tag, S-tag, thrombin site), no letters given
notes: alanine scan variant of MC-FN-010
B7: no binding (tested: 50 nM) [9].

B8: Trx-MC-FN-0114 (designed binder)
peptide: B1 chain with R26A
modifications: disulfide 13-25, 19-31, 3-23; also: N-terminal thioredoxin fusion carrier (Trx, H6-tag, S-tag, thrombin site), no letters given
notes: alanine scan variant of MC-FN-010; not shown: N-terminal carrier from vector pET-32-LibEx (E. coli thioredoxin-A, H6-tag, S-tag, thrombin site and their linkers)
B8: no binding (tested: 50 nM) [9].

B9: Trx-MC-FN-016 (thioredoxin fusion of cystine-knot miniprotein MC-FN-016) (designed binder)
chain: B1 chain with K7A
modifications: not fully specified (N-terminus, bridges); cysteine pairing not given here; also: N-terminal thioredoxin fusion carrier (Trx, H6-tag, S-tag, thrombin site), no letters given
notes: not shown: E. coli thioredoxin-A, fusion partner from vector pET-32-LibEx; H6-tag, s-tag and thrombin cleavage site of pET-32-LibEx
B9: no binding (tested: 50 nM) [10].

B10: Trx-MC-FN-0110 (designed binder, not shown: large carriers; small tags and cut ends)
chain: B1 chain with R11A
modifications: disulfide 13-25, 19-31, 3-23; also: N-terminal thioredoxin fusion carrier (Trx, H6-tag, S-tag, thrombin site), no letters given
notes: as for B7
B10: no binding (tested: 50 nM) [9].

B11: Trx-MC-FN-0111 (designed binder, not shown: large carriers; small tags and cut ends)
chain: B1 chain with L12A
modifications: disulfide 13-25, 19-31, 3-23; also: N-terminal thioredoxin fusion carrier (Trx, H6-tag, S-tag, thrombin site), no letters given
notes: as for B7
B11: no binding (tested: 50 nM) [9].

B12: Trx-MC-FN-018 (designed binder, not shown: large carriers; small tags and cut ends)
chain: B1 chain with R9A
modifications: disulfide 13-25, 19-31, 3-23; also: N-terminal thioredoxin fusion carrier (Trx, H6-tag, S-tag, thrombin site), no letters given
notes: as for B7
B12: no binding (tested: 50 nM) [9].
